According to patent US20070048860A1:

Legend:
Test in all cases: cell-based or functional assay
[1] = target: murine LFA-3 (CD48) expressed on MC38 cells infected with rV-LFA-3 (murine) (UniProt P18181)
[2] = target: murine ICAM-1 (CD54) expressed on MC38 cells infected with rV-ICAM-1 (murine) (UniProt P13597)
[3] = target: murine B7-1 (CD80) expressed on MC38 cells infected with rV-B7-1 (murine) (UniProt Q00609)

## Hamster anti-murine CD48 (BCM-1 clone HM48-1) (antibody)
[1]
  reduction of the increased T-cell proliferation supported by MC38/LFA-3 (Con A, 3H-thymidine): 98%

## Hamster anti-murine CD54 (ICAM-1; clone 3E2) (antibody)
[2]
  reduction of the increased T-cell proliferation supported by MC38/ICAM-1 (Con A, 3H-thymidine): 88%

## Hamster anti-murine CD80 (B7-1; clone 16-10A1) (antibody)
[3]
  inhibition of the increased T-cell proliferation supported by MC38/B7-1 (Con A, 3H-thymidine): 83%
